One may read the Tm as the temperature at the midpoint of the melting transition.

The conditions of this series: Capra hircus, pH 7.5, Thermal, Tris-HCl 10 mM, CaCl2 2 mM, whole UniProt chain shown.

Values joined by “and” are separate entries in the source; they are usually repeats but may differ in a detail not shown here. Equal entries are not always repeated.

B1: Alpha-lactalbumin wild type, P00712 (protein)
chain: MMSFVSLLLVGILFHATQAEQLTKCEVFQKLKDLKDYGGVSLPEWVCTAFHTSGYDTQAIVQNNDSTEYGLFQINNKIWCKDDQNPHSRNICNISCDKFLDDDLTDDIVCAKKILDKVGINYWLAHKALCSEKLDQWLCEKL
Take B1: the Tm is 71 °C and 71.1 °C (DSC); 70.7 °C and 71.2 °C and 69.9 °C (Fluorescence).

These data come from FireProtDB (doi:10.1002/prot.20496).
